In patent US20030167476A1 one finds EC50, signaling (activation of G protein-mediated signal) and Ki data, which are given here for 1 substance.

In experiment [1] the target is OR1, RASSL derived from the human kappa opioid receptor (human). In words: cell-based or functional assay.
The target of experiment [2] is OR2, RASSL derived from the human kappa opioid receptor (human). As to the kind of experiment: cell-based or functional assay.
Experiment [3] addresses OR1, RASSL derived from the human kappa opioid receptor (human). In words: binding to the receptor expressed in COS-7 and CHO-KI cells; Ki, method only 'as previously described'.
Experiment [4] concerns the target OR2, RASSL derived from the human kappa opioid receptor (human). Described as above.

The term Ki denotes a measure of affinity in units of concentration, obtained from inhibition or displacement. Take “Dynorphin A (from UniProt P01213 207-223) (peptide)”: the figures for the EC50, signaling (activation of G protein-mediated signal) in experiment [1] and in experiment [2] were 61 nM and 1080 nM, respectively. Moreover, the values for the Ki in experiment [3] and in experiment [4] were 14.6 nM and 125 nM, respectively.
